This is an account of results in publication PMC6042327 (BMC Biology, 2018).

Sequences and labels used below:
B1: SGTA C-terminal domain (CT; residues 213-313) (domain or fragment, human, UniProt O43765 213-313, looked up)
chain: TGGVGSFDIAGLLNNPGFMSMASNLMNNPQIQQLMSGMISGGNNPLGTPGTSPSQNDLASLIQAGQQFAQQMQQQNPELIEQLRSQIRSRTPSASNDDQQE
notes: small glutamine-rich tetratricopeptide repeat-containing protein alpha (SGTA), human, residues 213-313 (complete C-terminal domain); also called C-terminal domain of SGTA; not shown: thioredoxin A, N-terminal, cleaved; His6, N-terminal, cleaved
B2: SGTA NT-TPR (1-213) (domain or fragment, human, UniProt O43765 1-213, looked up)
chain: MDNKKRLAYAIIQFLHDQLRHGGLSSDAQESLEVAIQCLETAFGVTVEDSDLALPQTLPEIFEAAATGKEMPQDLRSPARTPPSEEDSAEAERLKTEGNEQMKVENFEAAVHFYGKAIELNPANAVYFCNRAAAYSKLGNYAGAVQDCERAICIDPAYSKAYGRMGLALSSLNKHVEAVAYYKKALELDPDNETYKSNLKIAELKLREAPSPT
notes: SGTA, human, residues 1-213 (N-terminal dimerisation domain and TPR domain); also called version lacking the C-terminal domain; not shown: thioredoxin A, N-terminal, cleaved; His6, N-terminal, cleaved
B3: FL SGTA C153 single-cysteine variant, MTSL spin-labelled (natural protein, human, UniProt O43765 1-313, looked up)
chain: MDNKKRLAYAIIQFLHDQLRHGGLSSDAQESLEVAIQSLETAFGVTVEDSDLALPQTLPEIFEAAATGKEMPQDLRSPARTPPSEEDSAEAERLKTEGNEQMKVENFEAAVHFYGKAIELNPANAVYFSNRAAAYSKLGNYAGAVQDSERAICIDPAYSKAYGRMGLALSSLNKHVEAVAYYKKALELDPDNETYKSNLKIAELKLREAPSPTGGVGSFDIAGLLNNPGFMSMASNLMNNPQIQQLMSGMISGGNNPLGTPGTSPSQNDLASLIQAGQQFAQQMQQQNPELIEQLRSQIRSRTPSASNDDQQE
modifications: MTSL spin label on cysteine 153
notes: SGTA, human, residues 1-313; the other three wild-type cysteines changed to serine, wild-type C153 kept; source: E. coli, prepared in the same way as the wild-type versions, MTSL spin-labelled, size-exclusion chromatography; not shown: thioredoxin A, N-terminal, cleaved; His6, N-terminal, cleaved
B4: FL SGTA S197C single-cysteine mutant, MTSL spin-labelled (natural protein, human, UniProt O43765 1-313, looked up)
chain: MDNKKRLAYAIIQFLHDQLRHGGLSSDAQESLEVAIQSLETAFGVTVEDSDLALPQTLPEIFEAAATGKEMPQDLRSPARTPPSEEDSAEAERLKTEGNEQMKVENFEAAVHFYGKAIELNPANAVYFSNRAAAYSKLGNYAGAVQDSERAISIDPAYSKAYGRMGLALSSLNKHVEAVAYYKKALELDPDNETYKCNLKIAELKLREAPSPTGGVGSFDIAGLLNNPGFMSMASNLMNNPQIQQLMSGMISGGNNPLGTPGTSPSQNDLASLIQAGQQFAQQMQQQNPELIEQLRSQIRSRTPSASNDDQQE
modifications: MTSL spin label on cysteine 197
notes: SGTA, human, residues 1-313; all four wild-type cysteines changed to serine, then S197C; source: E. coli, prepared in the same way as the wild-type versions, MTSL spin-labelled, size-exclusion chromatography; not shown: thioredoxin A, N-terminal, cleaved; His6, N-terminal, cleaved
B5: FL SGTA S136C single-cysteine mutant, MTSL spin-labelled (natural protein, human, UniProt O43765 1-313, looked up)
chain: MDNKKRLAYAIIQFLHDQLRHGGLSSDAQESLEVAIQSLETAFGVTVEDSDLALPQTLPEIFEAAATGKEMPQDLRSPARTPPSEEDSAEAERLKTEGNEQMKVENFEAAVHFYGKAIELNPANAVYFSNRAAAYCKLGNYAGAVQDSERAISIDPAYSKAYGRMGLALSSLNKHVEAVAYYKKALELDPDNETYKSNLKIAELKLREAPSPTGGVGSFDIAGLLNNPGFMSMASNLMNNPQIQQLMSGMISGGNNPLGTPGTSPSQNDLASLIQAGQQFAQQMQQQNPELIEQLRSQIRSRTPSASNDDQQE
modifications: MTSL spin label on cysteine 136
notes: SGTA, human, residues 1-313; all four wild-type cysteines changed to serine, then S136C; source: E. coli, prepared in the same way as the wild-type versions, MTSL spin-labelled, size-exclusion chromatography; not shown: thioredoxin A, N-terminal, cleaved; His6, N-terminal, cleaved
B6: FL SGTA S88C single-cysteine mutant, MTSL spin-labelled (natural protein, human, UniProt O43765 1-313, looked up)
chain: MDNKKRLAYAIIQFLHDQLRHGGLSSDAQESLEVAIQSLETAFGVTVEDSDLALPQTLPEIFEAAATGKEMPQDLRSPARTPPSEEDCAEAERLKTEGNEQMKVENFEAAVHFYGKAIELNPANAVYFSNRAAAYSKLGNYAGAVQDSERAISIDPAYSKAYGRMGLALSSLNKHVEAVAYYKKALELDPDNETYKSNLKIAELKLREAPSPTGGVGSFDIAGLLNNPGFMSMASNLMNNPQIQQLMSGMISGGNNPLGTPGTSPSQNDLASLIQAGQQFAQQMQQQNPELIEQLRSQIRSRTPSASNDDQQE
modifications: MTSL spin label on cysteine 88
notes: SGTA, human, residues 1-313; all four wild-type cysteines changed to serine, then S88C; source: E. coli, prepared in the same way as the wild-type versions, MTSL spin-labelled, size-exclusion chromatography; not shown: thioredoxin A, N-terminal, cleaved; His6, N-terminal, cleaved
B7: SGTA NT-TPR S88C single-cysteine mutant, MTSL spin-labelled (domain or fragment, human, UniProt O43765 1-213, looked up)
chain: MDNKKRLAYAIIQFLHDQLRHGGLSSDAQESLEVAIQSLETAFGVTVEDSDLALPQTLPEIFEAAATGKEMPQDLRSPARTPPSEEDCAEAERLKTEGNEQMKVENFEAAVHFYGKAIELNPANAVYFSNRAAAYSKLGNYAGAVQDSERAISIDPAYSKAYGRMGLALSSLNKHVEAVAYYKKALELDPDNETYKSNLKIAELKLREAPSPT
modifications: MTSL spin label on cysteine 88
notes: SGTA, human, residues 1-213; all four wild-type cysteines changed to serine, then S88C; also called C-terminal deletion mutant S88C; source: E. coli, prepared in the same way as the wild-type versions, MTSL spin-labelled, size-exclusion chromatography; not shown: thioredoxin A, N-terminal, cleaved; His6, N-terminal, cleaved
B8: SGTA NT-TPR S136C single-cysteine mutant, MTSL spin-labelled (domain or fragment, human, UniProt O43765 1-213, looked up)
chain: MDNKKRLAYAIIQFLHDQLRHGGLSSDAQESLEVAIQSLETAFGVTVEDSDLALPQTLPEIFEAAATGKEMPQDLRSPARTPPSEEDSAEAERLKTEGNEQMKVENFEAAVHFYGKAIELNPANAVYFSNRAAAYCKLGNYAGAVQDSERAISIDPAYSKAYGRMGLALSSLNKHVEAVAYYKKALELDPDNETYKSNLKIAELKLREAPSPT
modifications: MTSL spin label on cysteine 136
notes: SGTA, human, residues 1-213; all four wild-type cysteines changed to serine, then S136C; also called C-terminal deletion mutant S136C; source: E. coli, prepared in the same way as the wild-type versions, MTSL spin-labelled, size-exclusion chromatography; not shown: thioredoxin A, N-terminal, cleaved; His6, N-terminal, cleaved
B9: SGTA NT-TPR C153 single-cysteine variant, MTSL spin-labelled (domain or fragment, human, UniProt O43765 1-213, looked up)
chain: MDNKKRLAYAIIQFLHDQLRHGGLSSDAQESLEVAIQSLETAFGVTVEDSDLALPQTLPEIFEAAATGKEMPQDLRSPARTPPSEEDSAEAERLKTEGNEQMKVENFEAAVHFYGKAIELNPANAVYFSNRAAAYSKLGNYAGAVQDSERAICIDPAYSKAYGRMGLALSSLNKHVEAVAYYKKALELDPDNETYKSNLKIAELKLREAPSPT
modifications: MTSL spin label on cysteine 153
notes: SGTA, human, residues 1-213; the other three wild-type cysteines changed to serine, wild-type C153 kept; also called C-terminal deletion mutant C153; source: E. coli, prepared in the same way as the wild-type versions, MTSL spin-labelled, size-exclusion chromatography; not shown: thioredoxin A, N-terminal, cleaved; His6, N-terminal, cleaved
B10: SGTA NT-TPR S197C single-cysteine mutant, MTSL spin-labelled (domain or fragment, human, UniProt O43765 1-213, looked up)
chain: MDNKKRLAYAIIQFLHDQLRHGGLSSDAQESLEVAIQSLETAFGVTVEDSDLALPQTLPEIFEAAATGKEMPQDLRSPARTPPSEEDSAEAERLKTEGNEQMKVENFEAAVHFYGKAIELNPANAVYFSNRAAAYSKLGNYAGAVQDSERAISIDPAYSKAYGRMGLALSSLNKHVEAVAYYKKALELDPDNETYKCNLKIAELKLREAPSPT
modifications: MTSL spin label on cysteine 197
notes: SGTA, human, residues 1-213; all four wild-type cysteines changed to serine, then S197C; also called C-terminal deletion mutant S197C; source: E. coli, prepared in the same way as the wild-type versions, MTSL spin-labelled, size-exclusion chromatography; not shown: thioredoxin A, N-terminal, cleaved; His6, N-terminal, cleaved

The first series concerns the molecule itself. As to the kind of experiment: native MS; protein 5-10 uM in 0.20-0.75 M ammonium acetate pH 7.0, electrosprayed, source temperature 20 °C; self-association (monomer to dimer).
As usually defined, the stoichiometry N is the number of molecules, sites or subunits per partner or assembly. Take B1: the “stoichiometry N” value amounted to 2.
On the same count and under the same terms, in the case of B2 it was 2.

Another series concerns the molecule itself. Kind of series: DEER (EPR) spectroscopy; MTSL spin label on a single cysteine; distances between homologous sites in each monomer; 300-500 uM, D2O buffer with 50% d8-glycerol, flash frozen, measured at 50 K.
Take B3: the binding result is “binds”.
Same read-out and setting: in the case of B4 it was “binds”.
Same read-out and setting: in the case of B5 it was “binds”; in that of B6, “binds”.
Still for that read-out and setting: with B7 the entry was “binds”; with B8, “binds”; with B9, “binds”.
For the protein B10, the binding result is “binds”.
